# Patent US7268216B2, “Chimeric avidin mutants” (Licentia Oy, priority 2004, dated 2007)
# Like-named read-outs stand apart in the source and are kept apart here.
# Tests used:
# [1] = Fluorescent biotin dissociation assay; type: binding
# Experimental: The binding of labelled biotin to avidins was analysed by a method based on the quenching of a biotin-coupled fluorescent probe ArcDia BF560 (ArcDia Ltd., Turku, Finland) due to binding to avidin, as previously described (18). The measurements were performed using a PerkinElmer LS55 luminometer with thermostated cuvette (25 or 50° C.). The signal measured for 3600 sec (25° C.) or 2400 sec (50° C.) was used to determine the dissociation rate constant.
# [2] = Microplate assay: remaining biotin-binding activity after heat treatment; type: physicochemical; conditions: 50 mM phosphate buffer, 100 mM NaCl, pH 7.0
# Experimental: The inactivation of the proteins during heat-treatment was analysed by using a microplate assay (23). The proteins were heated to 99.9° C. in 50 mM phosphate buffer containing 100 mM NaCl (pH 7.0) for 32 minutes. The remaining activity was probed by measuring the ability of the proteins to bind biotinylated alkaline phosphatase by coating the microplate wells with samples of the heated proteins.
# Proteinase K [3] = experiment: Proteinase K assay (proteolytic resistance, SDS-PAGE); type: physicochemical; conditions: for digested after treatment with Proteinase K: 16 hours, 37° C., Proteinase K 1/25 w/w, without biotin; for cleavage by Proteinase K: proteins saturated with biotin before treatment
# Experimental: The proteolytic resistance of the proteins were studied using proteolysis by Proteinase K, as previously described (7). Protein sample (4 μg) was incubated in the presence of Proteinase K ( 1/25 w/w) at 37° C. for a predetermined time period, denatured by boiling in sample buffer (SDS, 2-mercaptoethanol) and subjected to SDS-PAGE followed by coomassie staining.
# [4] = cited from earlier work
# [5] = IAsys optical biosensor (SPR), 2-iminobiotin binding; conditions: 2-iminobiotin surface, 20° C., 50 mM borate buffer pH 9.5, 1 M NaCl
# Experimental: The biotin-binding characteristics of the different avidins were studied by a surface plasmon resonance (SPR) optical biosensor (IAsys). The binding affinities to the 2-iminobiotin surface in 50 mM borate buffer (pH 9.5, 1 M NaCl) were measured as previously reported (7).
# Proteinase K [6] = conditions: even without bound biotin; refs (8,32); cited from earlier work
# [7] = Differential scanning calorimetry (DSC), heat denaturation; type: physicochemical
# Experimental: The transition midpoint of the heat denaturation (Tm) of the avidin proteins was studied using a Calorimetry Sciences Corporation (CSC) Nano II differential scanning calorimeter, as in previous reports (22,23). Proteins (˜0.5 mg/ml) were analyzed both in the absence and presence of biotin (3:1 molar ratio; biotin:avidin monomer).
# [8] = Radiobiotin dissociation assay; type: binding; conditions: [3H]biotin, various temperatures
# Experimental: The dissociation rate of [3H]biotin from avidin, AVR4/5 and the avidin mutants was determined as described in (20) at various temperatures. The activation thermodynamic parameters for AVR4/5(C122S) and avidin were determined by analysis of the dependence of the dissociation rate upon temperature using the global fit of all data, as described in (21).
Substance,Release 1 h (total release of the probe) ([1]; 25° C.),"kdiss, dissociation rate constant ([1]; 25° C.)",Release 1 h (total release of the probe) ([1]; 50° C.),"kdiss, dissociation rate constant ([1]; 50° C.)",Activity: biotin-binding activity after 32 min treatment at 99.9° C. [2],digested after treatment with Proteinase K (Proteinase K [3]),cleavage by Proteinase K (Proteinase K [3]),"ΔH (unfolding enthalpy) ([4]; DSC, sample without biotin, results from ref (8))","Tm(+biotin) ([4]; DSC, with biotin, results from ref (8))","Tm(−biotin) ([4]; DSC, without biotin, results from ref (8))","ΔTm, change in Tm upon addition of a three-fold molar excess of biotin ([4]; DSC, results from ref (8))","Tm, transition midpoint of heat denaturation ([4]; from ref (8))","kass, association rate constant [5]",resistance to cleavage by Proteinase K (Proteinase K [6]),"Tm, transition midpoint of heat denaturation [7]","ΔTm, change in Tm upon addition of a three-fold molar excess of biotin ([7]; DSC)","Tm(+biotin) ([7]; DSC, biotin 3:1 molar ratio biotin:avidin monomer)","ΔH (unfolding enthalpy) ([7]; DSC, sample without biotin)","Tm(−biotin) ([7]; DSC, without biotin, average ± S.D)",biotin binding / dissociation rate in radiobiotin dissociation assay [8]
AVD: Chicken avidin obtained from Belovo S. A.; homotetrameric egg-white glycoprotein (SEQ ID NO:1) [reference compound],10.7%,2.04 10^−5 s^−1,71.5%,2.74 10^−4 s^−1,4%,50%,no cleavage was observed,78.6 ± 1.2 kcal/mol,117.0 ± 0.7 °C,83.5 ± 0.1 °C,33.5 °C,83.5 °C,(2.6 ± 0.2) × 10^4 M^−1s^−1,,,,,,,
streptavidin: Bacterial analogue of avidin from Streptomyces avidinii,,,,,,,,,,,,,,resistant to cleavage,,,,,,
"AVD(I117Y): Avidin with mutation I117Y in 1-3 subunit interface, produced in baculovirus-infected insect cells",3.0%,0.81 10^−5 s^−1,56.5%,1.61 10^−4 s^−1,47%,50%,no cleavage was observed,,,,,,(2.3 ± 0.3) × 10^4 M^−1s^−1,,97.5 °C,26.2 °C,123.7 ± 0.1 °C,128 ± 1.4 kcal/mol,97.5 ± 0.4 °C,"very tight, avidin-like biotin binding"
